# B1: Rho-related GTP-binding protein RhoD (Mus musculus), P97348 (parent)
# chain: MNASQVAGEEAPQSGHSVKVVLVGDGGCGKTSLMMVFAKGAFPESYSPTVFERYNATLQMKGKPVHLQIWDTAGQDDYDRLRPLFYPDANVLLLCFDVTNPNSFDNVSNRWYPEVTHFCKGVPIIVVGCKIDLRKDKVLVNNLRKKRLEPVTYHRGHDMARSVGAVAYLECSARLHDNVEAVFQEAAEVALSSRRHNFWRRITQNCCLAT
# Variants of: B1
# Conditions: with dapk3_human DAPK3, O43293
# Sequence of dapk3_human DAPK3, O43293 (O43293 whole entry, looked up): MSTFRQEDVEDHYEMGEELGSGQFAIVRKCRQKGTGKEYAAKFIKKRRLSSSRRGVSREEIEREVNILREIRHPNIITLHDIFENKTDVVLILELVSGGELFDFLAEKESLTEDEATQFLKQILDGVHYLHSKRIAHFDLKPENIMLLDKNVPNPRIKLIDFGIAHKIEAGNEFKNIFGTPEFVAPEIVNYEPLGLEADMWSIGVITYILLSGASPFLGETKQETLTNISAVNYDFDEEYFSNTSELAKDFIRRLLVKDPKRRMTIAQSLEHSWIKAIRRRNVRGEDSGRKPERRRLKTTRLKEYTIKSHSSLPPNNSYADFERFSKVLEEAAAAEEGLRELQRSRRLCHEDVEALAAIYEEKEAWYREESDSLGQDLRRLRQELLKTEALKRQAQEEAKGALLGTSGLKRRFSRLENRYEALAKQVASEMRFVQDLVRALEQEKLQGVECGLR
row,effect of a mutation on the interaction,Variant
1,disrupting interaction,T31N
